Results on six molecules are retold here after paper PMC3168947 (Molecular cell, 2011).

No end group written: not given here.

In one data set the test system is ^ΔLClpA6. In words: Binding of ClpS*^F to ^ΔLClpA6, with or without peptide. Further details: species or system E. coli. Particulars: 20 μM LLYVQRDSKEC; Fig. 3E; in words.
In another data set the target is ClpA6 (Escherichia coli, UniProt P0A8Q6+P0ABH9, C101S/C73V/E96C). Format: binding, E. coli.
Data set [1] relates to ClpAP. Particulars: H66A mutation; in words; ref Wang et al., 2008a; cited from earlier work.
Data set [2] concerns ClpAP. Particulars: ref Dougan et al., 2002; cited from earlier work.
Data set [3] relates to ClpAP. Briefly: ClpAPS degradation of YLFVQELA-GFP. Format: biochemical, E. coli. Conditions: YLFVQELA-GFP degradation; Vmax = Etotal•kdeg/(1+K2); KM = K1•K2/(1+K2); Fig. 4B.
The subject of the next data set is ClpA. Briefly: FeBABE cleavage of ClpA by FeBABE-modified ^Q12CClpS. Conditions: SDS-PAGE; in words. Further details: species or system E. coli.
In another data set the target is T1, ClpS-ClpA6 complex (E. coli, UniProt P0ABH9 1-758; P0A8Q6 1-106).
T1 sequence (looked up) 1: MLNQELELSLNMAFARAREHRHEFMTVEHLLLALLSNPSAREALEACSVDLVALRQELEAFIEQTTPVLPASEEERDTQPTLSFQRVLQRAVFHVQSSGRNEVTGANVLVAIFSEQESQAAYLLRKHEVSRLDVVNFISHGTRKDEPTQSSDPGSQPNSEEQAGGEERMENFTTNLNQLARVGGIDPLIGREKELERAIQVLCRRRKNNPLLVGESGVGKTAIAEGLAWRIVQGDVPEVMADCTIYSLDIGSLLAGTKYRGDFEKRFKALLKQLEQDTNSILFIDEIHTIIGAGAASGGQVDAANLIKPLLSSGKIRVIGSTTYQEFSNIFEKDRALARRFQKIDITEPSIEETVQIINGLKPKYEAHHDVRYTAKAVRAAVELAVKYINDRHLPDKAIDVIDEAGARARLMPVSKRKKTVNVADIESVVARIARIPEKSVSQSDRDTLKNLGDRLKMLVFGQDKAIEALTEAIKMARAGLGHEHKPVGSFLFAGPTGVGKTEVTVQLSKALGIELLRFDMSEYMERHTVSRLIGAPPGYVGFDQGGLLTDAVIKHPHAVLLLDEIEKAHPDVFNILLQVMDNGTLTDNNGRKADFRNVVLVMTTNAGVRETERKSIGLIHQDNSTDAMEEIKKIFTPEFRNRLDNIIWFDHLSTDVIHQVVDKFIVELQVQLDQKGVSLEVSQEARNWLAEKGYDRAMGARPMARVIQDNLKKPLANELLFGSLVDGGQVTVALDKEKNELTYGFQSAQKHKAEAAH
T1 sequence (looked up) 2: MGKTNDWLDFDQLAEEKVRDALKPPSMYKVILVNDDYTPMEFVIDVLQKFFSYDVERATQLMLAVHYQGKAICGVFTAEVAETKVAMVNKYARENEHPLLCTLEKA
In words: fluorescence polarisation. For orientation: Polarisation of emitted light reports the rotation of a fluorescent probe.

For another data set, the target named is T2, D20 ClpS with ClpA6 (E. coli, UniProt P0ABH9 1-758; P0A8Q6 20-106).
T2 sequence (looked up) 1: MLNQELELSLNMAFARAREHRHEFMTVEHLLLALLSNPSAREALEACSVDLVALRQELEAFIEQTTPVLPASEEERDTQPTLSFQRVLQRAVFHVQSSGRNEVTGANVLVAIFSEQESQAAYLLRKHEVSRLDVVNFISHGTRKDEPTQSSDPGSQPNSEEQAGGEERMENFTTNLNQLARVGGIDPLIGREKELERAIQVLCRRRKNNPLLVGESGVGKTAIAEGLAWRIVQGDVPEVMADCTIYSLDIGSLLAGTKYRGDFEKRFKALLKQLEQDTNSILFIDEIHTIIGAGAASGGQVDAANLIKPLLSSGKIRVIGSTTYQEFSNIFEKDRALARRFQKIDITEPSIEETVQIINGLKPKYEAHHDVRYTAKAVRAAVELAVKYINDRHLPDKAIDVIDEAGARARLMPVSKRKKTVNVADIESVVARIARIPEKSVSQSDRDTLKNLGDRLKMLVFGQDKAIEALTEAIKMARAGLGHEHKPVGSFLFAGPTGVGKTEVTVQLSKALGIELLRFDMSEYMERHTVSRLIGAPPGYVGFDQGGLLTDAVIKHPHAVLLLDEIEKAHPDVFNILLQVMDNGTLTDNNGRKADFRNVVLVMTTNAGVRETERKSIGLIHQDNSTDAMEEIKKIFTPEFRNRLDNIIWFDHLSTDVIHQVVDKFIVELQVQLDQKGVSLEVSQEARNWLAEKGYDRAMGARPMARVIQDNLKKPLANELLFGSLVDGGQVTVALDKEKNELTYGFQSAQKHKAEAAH
T2 sequence (looked up) 2: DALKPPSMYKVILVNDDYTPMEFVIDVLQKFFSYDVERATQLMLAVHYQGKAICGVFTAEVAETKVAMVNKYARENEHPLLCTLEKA
Briefly: fluorescence polarisation.

In the next data set the target is T3, L22 ClpS with ClpA6 (E. coli, UniProt P0ABH9 1-758; P0A8Q6 22-106).
T3 sequence (looked up) 1: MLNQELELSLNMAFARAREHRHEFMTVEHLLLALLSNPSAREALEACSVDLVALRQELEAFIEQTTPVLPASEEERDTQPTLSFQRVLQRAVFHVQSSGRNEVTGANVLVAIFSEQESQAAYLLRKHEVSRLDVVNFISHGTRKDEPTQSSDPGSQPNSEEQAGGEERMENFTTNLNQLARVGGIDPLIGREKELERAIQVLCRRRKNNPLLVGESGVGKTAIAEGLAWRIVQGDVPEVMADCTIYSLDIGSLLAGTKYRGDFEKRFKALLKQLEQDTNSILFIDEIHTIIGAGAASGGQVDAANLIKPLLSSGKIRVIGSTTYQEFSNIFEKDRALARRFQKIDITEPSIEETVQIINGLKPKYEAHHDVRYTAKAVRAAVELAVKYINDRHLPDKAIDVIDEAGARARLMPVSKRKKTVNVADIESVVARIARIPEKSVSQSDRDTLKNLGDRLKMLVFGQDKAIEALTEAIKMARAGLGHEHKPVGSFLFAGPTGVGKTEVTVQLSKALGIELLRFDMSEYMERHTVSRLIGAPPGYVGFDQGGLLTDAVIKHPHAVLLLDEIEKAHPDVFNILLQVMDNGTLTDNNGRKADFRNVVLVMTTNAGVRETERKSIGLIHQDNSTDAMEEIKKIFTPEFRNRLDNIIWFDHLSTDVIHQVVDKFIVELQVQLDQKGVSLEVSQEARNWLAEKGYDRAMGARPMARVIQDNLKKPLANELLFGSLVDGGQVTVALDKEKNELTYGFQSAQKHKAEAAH
T3 sequence (looked up) 2: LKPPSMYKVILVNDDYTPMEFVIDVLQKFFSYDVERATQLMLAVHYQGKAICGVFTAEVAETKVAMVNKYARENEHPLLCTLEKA
In words: fluorescence polarisation.

Data set [4] deals with T4, ClpS^core (E. coli ClpS residues 26-106) (E. coli, UniProt P0A8Q6 26-106).
T4 sequence (looked up): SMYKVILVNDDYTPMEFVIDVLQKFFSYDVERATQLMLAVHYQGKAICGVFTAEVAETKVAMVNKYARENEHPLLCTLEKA
Briefly: fluorescence polarisation.

Data set [5] addresses T5, ClpS adaptor (intact, wild type) (E. coli, UniProt P0A8Q6 1-106).
T5 sequence (looked up): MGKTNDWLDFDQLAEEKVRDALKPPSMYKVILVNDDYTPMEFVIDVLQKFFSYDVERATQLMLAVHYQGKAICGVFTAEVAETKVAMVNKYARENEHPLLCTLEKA
Briefly: fluorescence polarisation.

The data set “crystal structure” deals with the molecule itself. Briefly: crystal structure.

ClpA6, sequence (P0A8Q6 whole entry C73V/E96C/C101S, one chain of several): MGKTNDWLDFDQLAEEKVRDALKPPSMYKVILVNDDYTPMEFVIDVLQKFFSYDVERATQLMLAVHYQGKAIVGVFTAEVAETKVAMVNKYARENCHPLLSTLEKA

In the case of LLYVQRDSKEC, the “enhancement of ClpS*^F binding to ^ΔLClpA6 by N-end-rule peptide” value in the data set on ^ΔLClpA6 was “enhanced binding of ClpS*^F to ClpA6 but not to ^ΔLClpA6”. Besides, on ClpA6 (excess peptide, compared with MLYVQRDSKEC peptide or absence of ligand), the “ClpA6 bound ClpS*^F more tightly, fold” value is “at least 9 fold”. The “Kapp of ClpA6 for ClpS*^F in presence of peptide” value on ClpA6 (fluorescence anisotropy, 200 nM ClpS*^F, 20 μM peptide, ATPγS, Fig. 3A) is below 20 nM.

B1: H66A: H66A mutation of ClpS (protein, UniProt P0A8Q6 1-106, looked up, variant H66A)
ATP-dependent Clp protease …: MGKTNDWLDFDQLAEEKVRDALKPPSMYKVILVNDDYTPMEFVIDVLQKFFSYDVERATQLMLAVAYQGKAICGVFTAEVAETKVAMVNKYARENEHPLLCTLEKA
With B1, the “KM and Vmax for ClpAP degradation of N-end-rule substrates” value with ClpAP [1] is “increased KM and reduced Vmax”.

B2: ClpS: E. coli ClpS adaptor; folded core (residues 26-106) and N-terminal extension (residues 1-25) (protein, UniProt P0A8Q6 1-106, looked up)
ATP-dependent Clp protease …: MGKTNDWLDFDQLAEEKVRDALKPPSMYKVILVNDDYTPMEFVIDVLQKFFSYDVERATQLMLAVHYQGKAICGVFTAEVAETKVAMVNKYARENEHPLLCTLEKA
B2: the “degradation by ClpAP” value with ClpAP [2] is given as “does not degrade”. Also, the “K2 (unimolecular engagement step, global fit)” value with ClpAP [3] was determined as 0.37.

B3: ^Q12CClpS: Q12C ClpS variant, FeBABE attached to residue 12 (protein, UniProt P0A8Q6 1-106, looked up, variant Q12C)
ATP-dependent Clp protease …: MGKTNDWLDFDCLAEEKVRDALKPPSMYKVILVNDDYTPMEFVIDVLQKFFSYDVERATQLMLAVHYQGKAICGVFTAEVAETKVAMVNKYARENEHPLLCTLEKA
modifications: FeBABE attached at Cys12
For B3, in the data set on ClpA, the FeBABE cleavage requirement entry was “cleavage of ClpA required FeBABE-modified ^Q12CClpS and ATPγS”.

B4: fluorescent N-end-rule peptide LLYVQRDSKEC-fl (peptide)
peptide: LLYVQRDSKEC(fluorescein maleimide)
Regarding B4, the Kd (as a rule, the free concentration of one partner at which half of the binding sites on the other are occupied at equilibrium, for simple one-to-one binding) is 43 nM in the data set with ClpS-ClpA6 complex; 130 nM with D20 ClpS with ClpA6; 290 nM with L22 ClpS with ClpA6; around 3000 nM in data set [4]; around 3000 nM in [5].

B5: E. coli ClpS residues 2-106 (crystals of Schuenemann et al., 2009, re-refined here) (natural protein, UniProt P0A8Q6 2-106, looked up)
chain: GKTNDWLDFDQLAEEKVRDALKPPSMYKVILVNDDYTPMEFVIDVLQKFFSYDVERATQLMLAVHYQGKAICGVFTAEVAETKVAMVNKYARENEHPLLCTLEKA
Take B5: in the data set “crystal structure”, the binding result is “binds”.
